Source: PMC3299299, “Recombinant Expression and Characterization of Human and Murine ACE2: Species-Specific Activation of the Alternative Renin-Angiotensin-System” (International Journal of Hypertension, 2012)

Assays:
Type in all cases: biochemical
[1] = system: human RAS in blood plasma; assay: Ex vivo incubation of renin-spiked human plasma, RAS-Fingerprinting by LC-MS/MS; details: human plasma + 100 pg/mL recombinant human renin, 10 μM Lisinopril present, without or with 5 μg/mL enzyme, 10 min 37°C (Fig 3b); 0 = below quantification limit (2 pg/mL plasma)
Description: Anticoagulated blood was collected from healthy volunteers, and plasma was separated by 10 minutes centrifugation at 3000 RCF. […] After 10 minutes of incubation at 37°C, in the presence or absence of Lisinopril (Sigma), samples were chilled on ice and immediately subjected to LC-MS/MS analysis.
Plasma samples were spiked with 100 pg/mL stable-isotope-labeled internal standards and subjected to solid-phase extraction using Sep-Pak cartridges (Waters) according to manufacturers protocol. Following elution and solvent evaporation, samples were reconstituted in 50 μL 50% acetonitrile/0.1% formic acid and subjected to LC-MS/MS analysis using a reversed-phase analytical column (Luna C18, Phenomenex) using a gradient ranging from 10% acetonitrile/0.1% formic acid to 70% acetonitrile/0.1% formic acid in 9 minutes. The eluate was analyzed in line with a QTRAP-4000 mass spectrometer (AB Sciex) operated in the MRM mode using dwell times of 25 msec at a cone voltage of 4000 volts and a source temperature of 300°C. For each peptide and corresponding internal standards, two different mass transitions were measured. Angiotensin peptide concentrations were calculated by relating endogenous peptide signals to internal standard signals provided that integrated signals achieved a signal-to-noise ratio above 10.
RAS-Fingerprints were measured by LC-MS/MS as indicated in Section 2. Samples were incubated in the absence (a) or presence (b) of 10 μM of the ACE inhibitor Lisinopril. In this figure, the diameter of the spheres reflects the concentration of the respective peptide metabolite, which is also given in pg/mL next to each individual sphere. 0 pg/mL indicates concentrations below quantification limits, which are defined by a signal-to-noise ratio below 10. Furthermore, the amino acid sequence of each angiotensin metabolite is schematically given in brackets beside the corresponding sphere. The sequence annotation is based on the decapeptide Angiotensin I (1–10) which is N- or C-terminally cleaved by the indicated proteases. […]

Ang 1–10 = assay: In vitro kinetic assay, Ang 1–10 cleavage to Ang 1–9, HPLC quantification
Description: (§1) Enzyme reactions were started by adding a defined amount of enzyme to substrate dilutions in MES-buffer (50 mM MES, 300 mM NaCl, 10 μM ZnCl2, 0.01% Brij-35, pH 6.5) which were previously equilibrated at 37°C. Aliquots of the reaction mixes were taken every 10 minutes and stopped by addition of 0.5 M EDTA to a final concentration of 100 mM before HPLC-based quantification of peptides.
(§2) The concentration of peptides in enzymatic reactions was quantified by detection of peaks eluted from the HPLC column using an in-line diode array detector. Chromatography was performed by running a gradient on a reversed-phase matrix (Source 5RPC, 4.6×150 mm, 5 μm) with 0.08% H3PO4 in water as mobile phase A and 40% acetonitrile in water and 0.08% H3PO4 as mobile phase B. The optical density at 280 nm was recorded inline for all eluting peaks, and peptide concentrations were calculated via calibration curves for each individual peptide.
(§3) The turnover rates for natural ACE2 substrates were determined by in vitro incubation with excess amounts of substrate followed by reversed-phase HPLC analysis. […] Each time point was analyzed in true triplicates and standard deviations are given in the graphs together with linear regressions of the measured values.

Ang 1–8 = assay: In vitro kinetic assay, Ang 1–8 cleavage to Ang 1–7, HPLC quantification; details: ratio of k cat of the same enzyme for the two substrates
Description: as §1, §2
as §3, with “analysis. […] The resulting time courses are shown in the graphs.” for “analysis.”

B1: rmACE2: extracellular domain of murine ACE2 recombinantly expressed in CHO cells (protein)
chain: QSLTEENAKTFLNNFNQEAEDLSYQSSLASWNYNTNITEENAQKMSEAAAKWSAFYEEQSKTAQSFSLQEIQTPIIKRQLQALQQSGSSALSADKNKQLNTILNTMSTIYSTGKVCNPKNPQECLLLEPGLDEIMATSTDYNSRLWAWEGWRAEVGKQLRPLYEEYVVLKNEMARANNYNDYGDYWRGDYEAEGADGYNYNRNQLIEDVERTFAEIKPLYEHLHAYVRRKLMDTYPSYISPTGCLPAHLLGDMWGRFWTNLYPLTVPFAQKPNIDVTDAMMNQGWDAERIFQEAEKFFVSVGLPHMTQGFWANSMLTEPADGRKVVCHPTAWDLGHGDFRIKMCTKVTMDNFLTAHHEMGHIQYDMAYARQPFLLRNGANEGFHEAVGEIMSLSAATPKHLKSIGLLPSDFQEDSETEINFLLKQALTIVGTLPFTYMLEKWRWMVFRGEIPKEQWMKKWWEMKREIVGVVEPLPHDETYCDPASLFHVSNDYSFIRYYTRTIYQFQFQEALCQAAKYNGSLHKCDISNSTEAGQKLLKMLSLGNSEPWTKALENVVGARNMDVKPLLNYFQPLFDWLKEQNRNSFVGWNTEWSPYADQSIKVRISLKSALGANAYEWTNNEMFLFRSSVAYAMRKYFSIIKNQTVPFLEEDVRVSDLKPRVSFYFFVTSPQNVSDVIPRSEVEDAIRMSRGRINDVFGLNDNSLEFLGIHPTLEPPYQPPVT
- Ang (1–7) concentration in plasma [1]: < 2 pg/mL
- Ang 1–10-related turnover rate of rmACE2 as share of the rate for rhACE2 (Ang 1–10): 7%
- k cat, Ang 1–10 ≥ Ang 1–9 (Ang 1–10; […] enzyme, 65 μM Ang 1–10, MES buffer pH 6.5, 37°C, HPLC, mean of substrate degradation and product formation rates related to enzyme concentration, triplicates): 0.0013 s⁻¹
- turnover number for Ang 1–8 compared to Ang 1–10 (Ang 1–8): 492 fold
